Tested on: MS2 coat protein
Assay: apparent KD of MS2 coat protein; higher = weaker reporter binding
Conditions: Eterna round: R107; input ligand: theophylline 20 uM
Method in brief: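 Designed RNA switches were transcribed on-chip from Illumina sequencing clusters and titrated with SNAP-549-labelled MS2 coat protein in twofold steps from 0.7 or 1.5 nM up to 3 µM. Each step lasted 0.8–1.5 h at first and 10–20 min by the end, in 100 mM Tris-HCl pH 7.5, 80 mM KCl and 4 mM MgCl2, without or with constant ligand. Apparent KD is the median, for each design, of fits to normalised cluster binding curves.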

Sequence	apparent KD of MS2 coat protein
UGACCCUUCACGGCCGCCACUCAUUUUAAGUAGAGAGAGUACAUGAGGAUCACCCAUGUGAGAGAGAGGACCGGGUGAGAUGUUG [ss-trypB-0(N)]	30.8 nM
AGACAUGAGGAUCACCCAUGUAGUACGGAUACCAGAUCCAGAUUUAUCCCUUGGCAGCUGUGGUACAGCGUUGCAACGCUCCUAG [Exclusion - Theophylline A (Freestyle 15)]	22.1 nM
GGCCGUGCGAGCGCUCGCGUGGCCGCGGAUACCAGCGAGGUCCAUCGCCCUUGGCAGCCGAACAUGAGGAUCACCCAUGUCGGUA [#1 Same State - Theophylline A Attempt #14 (HarryS)]	15.2 nM
ACAUGAGGAUCACCCAUGUGGCGACUUGAUACCAGACCCGCACUAGUCCCUUGGCAGCAACUACGUGAGGGUCACCCAUGUGAAG [vndullin]	29.3 nM
GGCGGACUUAUAGAUACCAGCACAUGAGGAUCACCCAUGUAUGGUCGCACCUCAGUCCUGUGCCCUUGGCAGCUAUAAUAGAUUU [Esxeanbi]	49.8 nM
AGAAUACAUGUUUUAAUACGGUUUACUGAUACCAGUGUAUCUAUUCACCCUUGGCAGCAGAGACAUGAGGAUCACCCAUGUAUUA [JR_Nu_ExcTheophyA_Sub022]	41.7 nM
UCGUUUUAGUCGGCCGCCACUGAACUCAUGUUCAACAUGAGGAUCACCCAUGUACCUUAUUUUAACAGGACCGGGACGUAAUAGA [JR_ExcTryptoB_Sub001]	264 nM
GGGUACAUCGCGGCCGCCACUUAUGUAAAUACAUGAGGAUCACCCAUGUCGAUGGAGACAUCGGUAAGGACCGGGUGAUGUACCG	174 nM
CGGUAGGUAGGUCGAUAUCUACCCGUAGAAGGAGCGUAAGAAAAUACAGGUAGGUCGCUACGGUACAUGAGCAUCAGCCAUGUCC [SSArg A #13 Alt-Ms2]	15.2 nM
GUCACCAGGAGAAGGAGCGUGAAGACAUGAGGAUCACCCAUGUAGAGGCGCCGACGGCGUUCGCAGGUAGGUCGCUCCUGGUGAC [#1 Same State - Arginine B Attempt #17 (HarryS)]	35.2 nM
ACUCGGUGUUUGUUGCUCCGAGUGUAUGAUACCAGUCAGUUUUAUGGCCCUUGGCAGCAUAGGACAUGAGGAUCACCCAUGUGUU [#01 SameState-TheophyllineA]	49 nM
GAACAUGAGGAUCACCCAUGUUAAACAGAUACCAGUGAUAUAAUACACCCUUGGCAGCUGAAGCUGAAUAAUAAUUCCCUCAAGC [#21 SameState-TheophyllineA]	17 nM
AAUUGGGUUGGUGAGGUGGUUGGAGGCGAUACCAGCGUGGAAACACGCCCUUGGCAGCGCCAGGACAUGAGGAUCACCCAUGUUA [Brno]	160 nM
AUUCAUGGAAACAUGACAUAGGGAUCUAUCCGAGGACCGGUACGGCCGCCACUCGCGUGGAGGCACAUGAGGAUCACCCAUGUUA [SS Tryp A #5]	384 nM
CACGGAUGAGUGGAUCACCCUCGUAAUAACCGAGGACCGGUACGGCCGCCACUCGAAAACCGUGACCUGUACGAAAAGUGCAGGA	399 nM

Same assay, conditions: Eterna round: R107; input ligand: theophylline 2 mM

Sequence	apparent KD of MS2 coat protein
UGGUGCCCUGUAUACAUUGUAAUCCUAAUGCGAGGACCGGUACGGCCGCCACUCGUUGCGGAACAUGAGGAUCACCCAUGUAACA [theeternabot_exclusion_MS2_Trp_A_21]	32 nM
UACUUGCUGACGGCCGCCACUAGAACAUGAGGAUCACCCAUGUAAGUGGUUGGUUCAUGGGUGACUAGGACCGGGUCAGCAAGAU [(Trp1)-(Ms2)-(T)'-(M)'-(Trp2)_Design19]	37.7 nM
AGAUUCGACACGGCCGCCACUCGUGCCGGAUUACCGAGUGUCGAACAUGAGGAUCACCCAUGUACGAGGACCGGGUGUUGAGUCU [XTryp B #17]	48.1 nM
GAGUCCGCGGCGGCCGCCACUCGCGAUAUAACAUGAUAUCAGGACAUGAGGAUCACCCAUGUCACGAGGACCGGGCCGAUCCUCA [Same State Typptophan B GF 5]	35.8 nM
CUGCCAUGCAGAGAUACCAGUGAGCUCAUAACAUGAGGAUCACCCAUGUACGCCGCAGAUCACCCUUGGCAGCUCUGCAUGGCAG [!#*@)]	10.1 nM
UAUACAUGAGGAUCACCCAUGUACCAUGAAGGAGCGCAGAAAUCUGCAGGUAGGUCGCAUGGGUUAUGACCUCGGCAUAAUAACG [Enreusus]	39.7 nM
GUUGUAUACUCGGCCGCCACUGAGAGAGUCAUGUAAACAUGAGGAUCACCCAUGUAAUAUAUAUACAGGACCGGGAGUAUGGUAA [4.F]	15.4 nM
GCCGCGGCCGCGAUACACAUGGGUAUGUAACGAGGACCGGUACGGCCGCCACUCGAGAUAAUGUACAUGAGGAUCACCCAUGUAC [Exclusion Tryp A GF12]	12.8 nM
UGACCCUUCACGGCCGCCACUCAUUUUAAGUAGAGAGAGUACAUGAGGAUCACCCAUGUGAGAGAGAGGACCGGGUGAGAUGUUG [ss-trypB-0(N)]	16.8 nM
GGCCGUGCGAGCGCUCGCGUGGCCGCGGAUACCAGCGAGGUCCAUCGCCCUUGGCAGCCGAACAUGAGGAUCACCCAUGUCGGUA [#1 Same State - Theophylline A Attempt #14 (HarryS)]	17.3 nM
ACAUGAGGAUCACCCAUGUGGCGACUUGAUACCAGACCCGCACUAGUCCCUUGGCAGCAACUACGUGAGGGUCACCCAUGUGAAG [vndullin]	28.9 nM
UCGUUUUAGUCGGCCGCCACUGAACUCAUGUUCAACAUGAGGAUCACCCAUGUACCUUAUUUUAACAGGACCGGGACGUAAUAGA [JR_ExcTryptoB_Sub001]	258 nM
GGGUACAUCGCGGCCGCCACUUAUGUAAAUACAUGAGGAUCACCCAUGUCGAUGGAGACAUCGGUAAGGACCGGGUGAUGUACCG	183 nM
CGGUAGGUAGGUCGAUAUCUACCCGUAGAAGGAGCGUAAGAAAAUACAGGUAGGUCGCUACGGUACAUGAGCAUCAGCCAUGUCC [SSArg A #13 Alt-Ms2]	11.7 nM
GUCACCAGGAGAAGGAGCGUGAAGACAUGAGGAUCACCCAUGUAGAGGCGCCGACGGCGUUCGCAGGUAGGUCGCUCCUGGUGAC [#1 Same State - Arginine B Attempt #17 (HarryS)]	26.6 nM
ACUCGGUGUUUGUUGCUCCGAGUGUAUGAUACCAGUCAGUUUUAUGGCCCUUGGCAGCAUAGGACAUGAGGAUCACCCAUGUGUU [#01 SameState-TheophyllineA]	33.8 nM
AAUUGGGUUGGUGAGGUGGUUGGAGGCGAUACCAGCGUGGAAACACGCCCUUGGCAGCGCCAGGACAUGAGGAUCACCCAUGUUA [Brno]	448 nM
AUUCAUGGAAACAUGACAUAGGGAUCUAUCCGAGGACCGGUACGGCCGCCACUCGCGUGGAGGCACAUGAGGAUCACCCAUGUUA [SS Tryp A #5]	843 nM
CACGGAUGAGUGGAUCACCCUCGUAAUAACCGAGGACCGGUACGGCCGCCACUCGAAAACCGUGACCUGUACGAAAAGUGCAGGA	1500 nM

Same assay, conditions: Eterna round: R107; input ligand: tryptophan 2.4 mM

Sequence	apparent KD of MS2 coat protein
GGUGGUGGGACGGAUACCAGCCACCGCGGCAACGCAACAUGAGGAUCACCCAUGUUGGGUGGCCCUUGGCAGCUGUCCUGCGGCG [#1 Same State - Theophylline B Attempt #25 (HarryS)]	12.7 nM
CAUGAAGUAACUGAUACCAGUGUACUGACAUGAGGAUCACCCAUGUUGGGUUUUGUUGUACACCCUUGGCAGCAGAAUCUUUAUG [AstrosExyTheB#4]	58.5 nM
CUGCCAUGCAGAGAUACCAGUGAGCUCAUAACAUGAGGAUCACCCAUGUACGCCGCAGAUCACCCUUGGCAGCUCUGCAUGGCAG [!#*@)]	9.83 nM
CAGCCUGGUUGGUAAAUCCCUCAUCGUGAUACCAGUCGAGUGAUCGACCCUUGGCAGCACAUGAGGAUCACCCAUGUGCUCGUAU [Diorqu]	17.9 nM
UAUACAUGAGGAUCACCCAUGUACCAUGAAGGAGCGCAGAAAUCUGCAGGUAGGUCGCAUGGGUUAUGACCUCGGCAUAAUAACG [Enreusus]	26.2 nM
GGUGGUGUGACGGAUACCAGCCACCGCGGCAACGCAACAUGAGGAUCACCCAUGUUGGGUGGCCCUUGGCAGCUGUCGUGCGGCG [#1 Same State - Theophylline B Attempt #24 (HarryS)]	53.9 nM
UGUAUGUGAAGUGAUACCAGUCCAUAAACUGGAACAUGAGGAUCACCCAUGUAAUGGGUGGACCCUUGGCAGCACUUCUCAUACU [First try]	190 nM
AGAUCUUUCGAAAGAAGGAUAAUGGCUGAUACCAGAGACGAAAGUCUCCCUUGGCAGCAGUGCCAACAUGAGGAUCACCCAUGUA [Theophylline A 14]	178 nM
UGACCCUUCACGGCCGCCACUCAUUUUAAGUAGAGAGAGUACAUGAGGAUCACCCAUGUGAGAGAGAGGACCGGGUGAGAUGUUG [ss-trypB-0(N)]	15.4 nM
AGACAUGAGGAUCACCCAUGUAGUACGGAUACCAGAUCCAGAUUUAUCCCUUGGCAGCUGUGGUACAGCGUUGCAACGCUCCUAG [Exclusion - Theophylline A (Freestyle 15)]	15.4 nM
GGCCGUGCGAGCGCUCGCGUGGCCGCGGAUACCAGCGAGGUCCAUCGCCCUUGGCAGCCGAACAUGAGGAUCACCCAUGUCGGUA [#1 Same State - Theophylline A Attempt #14 (HarryS)]	9.77 nM
ACAUGAGGAUCACCCAUGUGGCGACUUGAUACCAGACCCGCACUAGUCCCUUGGCAGCAACUACGUGAGGGUCACCCAUGUGAAG [vndullin]	18.3 nM
GGCGGACUUAUAGAUACCAGCACAUGAGGAUCACCCAUGUAUGGUCGCACCUCAGUCCUGUGCCCUUGGCAGCUAUAAUAGAUUU [Esxeanbi]	16.4 nM
AGAAUACAUGUUUUAAUACGGUUUACUGAUACCAGUGUAUCUAUUCACCCUUGGCAGCAGAGACAUGAGGAUCACCCAUGUAUUA [JR_Nu_ExcTheophyA_Sub022]	46.1 nM
CGGUAGGUAGGUCGAUAUCUACCCGUAGAAGGAGCGUAAGAAAAUACAGGUAGGUCGCUACGGUACAUGAGCAUCAGCCAUGUCC [SSArg A #13 Alt-Ms2]	13.1 nM
GUCACCAGGAGAAGGAGCGUGAAGACAUGAGGAUCACCCAUGUAGAGGCGCCGACGGCGUUCGCAGGUAGGUCGCUCCUGGUGAC [#1 Same State - Arginine B Attempt #17 (HarryS)]	20.4 nM
ACUCGGUGUUUGUUGCUCCGAGUGUAUGAUACCAGUCAGUUUUAUGGCCCUUGGCAGCAUAGGACAUGAGGAUCACCCAUGUGUU [#01 SameState-TheophyllineA]	50.8 nM
GAACAUGAGGAUCACCCAUGUUAAACAGAUACCAGUGAUAUAAUACACCCUUGGCAGCUGAAGCUGAAUAAUAAUUCCCUCAAGC [#21 SameState-TheophyllineA]	10.5 nM
AAUUGGGUUGGUGAGGUGGUUGGAGGCGAUACCAGCGUGGAAACACGCCCUUGGCAGCGCCAGGACAUGAGGAUCACCCAUGUUA [Brno]	175 nM
CACGGAUGAGUGGAUCACCCUCGUAAUAACCGAGGACCGGUACGGCCGCCACUCGAAAACCGUGACCUGUACGAAAAGUGCAGGA	39.8 nM

From the supplement of paper PMC9170038
